{"source": "patent US8242083B2", "about": "“Kinase substrates” (PerkinElmer Health Sciences, Inc., priority 2008, dated 2012)", "type_in_all_cases": "biochemical", "key": {"TYRO3": {"molecular_target": "T1, TYRO3 (Homo sapiens, UniProt Q06418)", "T1 sequence (Q06418 41-890)": "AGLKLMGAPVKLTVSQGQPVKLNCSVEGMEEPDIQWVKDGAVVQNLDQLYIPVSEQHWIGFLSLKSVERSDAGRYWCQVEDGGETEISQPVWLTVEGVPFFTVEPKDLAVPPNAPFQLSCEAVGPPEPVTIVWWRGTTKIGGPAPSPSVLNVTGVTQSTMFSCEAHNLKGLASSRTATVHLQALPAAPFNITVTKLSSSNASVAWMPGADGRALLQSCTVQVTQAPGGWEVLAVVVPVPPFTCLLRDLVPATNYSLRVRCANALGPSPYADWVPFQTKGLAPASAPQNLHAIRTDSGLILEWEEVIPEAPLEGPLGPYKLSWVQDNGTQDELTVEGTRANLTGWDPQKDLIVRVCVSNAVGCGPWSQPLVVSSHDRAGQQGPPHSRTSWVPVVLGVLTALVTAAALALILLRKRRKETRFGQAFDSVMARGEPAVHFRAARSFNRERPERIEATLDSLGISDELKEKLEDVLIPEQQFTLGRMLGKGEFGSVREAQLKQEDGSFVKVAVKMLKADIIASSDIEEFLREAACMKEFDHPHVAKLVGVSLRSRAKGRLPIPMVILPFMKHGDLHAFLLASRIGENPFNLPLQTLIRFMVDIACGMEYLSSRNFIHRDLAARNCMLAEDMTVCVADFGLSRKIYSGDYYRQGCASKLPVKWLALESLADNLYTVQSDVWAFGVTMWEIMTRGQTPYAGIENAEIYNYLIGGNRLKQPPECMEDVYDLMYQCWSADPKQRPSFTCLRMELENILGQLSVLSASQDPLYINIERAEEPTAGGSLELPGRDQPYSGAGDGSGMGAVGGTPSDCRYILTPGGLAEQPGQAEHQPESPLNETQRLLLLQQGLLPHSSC", "test": "TR-FRET kinase assay, TYRO3", "settings": "Kinase Concentration 0.25 nM; 50 nM ULight-labeled substrate, 200 micromolar ATP, 2 hours", "method": "(§1) TR-FRET kinase assays are performed under standardized conditions: various individual kinases are incubated with 50 nM of kinase substrate BRB1 labeled with the TR-FRET acceptor dye ULight (PerkinElmer) and 200 micromolar ATP in 10 μL of kinase assay buffer (50 mM HEPES pH7.5, 10 mM MgCl2, 3 mM MnCl2, 1 mM EGTA, 2 mM DTT and 0.01% Tween-20) for 2 hours at room temperature. Reactions are stopped with EDTA, and anti-phospho-tyrosine antibodies (clone PT66) labeled with the TR-FRET europium chelate donor dye are added to a final concentration of 2 nM in a final volume of 20 μL. The TR-FRET signal emitted at 665 nm is read one hour after the addition of antibodies using a TR-FRET plate reader such as the Envision® Multilabel Plate reader (PerkinElmer). The emitted signal at 665 nm is proportional to the extent of peptide phosphorylation, Control reactions indicative of background are performed excluding ATP from the reaction.\n(§2) Assay conditions are identical to those used described for FIG. 1."}, "MER": {"molecular_target": "T2, MER (Homo sapiens, UniProt Q12866)", "T2 sequence (Q12866 21-999)": "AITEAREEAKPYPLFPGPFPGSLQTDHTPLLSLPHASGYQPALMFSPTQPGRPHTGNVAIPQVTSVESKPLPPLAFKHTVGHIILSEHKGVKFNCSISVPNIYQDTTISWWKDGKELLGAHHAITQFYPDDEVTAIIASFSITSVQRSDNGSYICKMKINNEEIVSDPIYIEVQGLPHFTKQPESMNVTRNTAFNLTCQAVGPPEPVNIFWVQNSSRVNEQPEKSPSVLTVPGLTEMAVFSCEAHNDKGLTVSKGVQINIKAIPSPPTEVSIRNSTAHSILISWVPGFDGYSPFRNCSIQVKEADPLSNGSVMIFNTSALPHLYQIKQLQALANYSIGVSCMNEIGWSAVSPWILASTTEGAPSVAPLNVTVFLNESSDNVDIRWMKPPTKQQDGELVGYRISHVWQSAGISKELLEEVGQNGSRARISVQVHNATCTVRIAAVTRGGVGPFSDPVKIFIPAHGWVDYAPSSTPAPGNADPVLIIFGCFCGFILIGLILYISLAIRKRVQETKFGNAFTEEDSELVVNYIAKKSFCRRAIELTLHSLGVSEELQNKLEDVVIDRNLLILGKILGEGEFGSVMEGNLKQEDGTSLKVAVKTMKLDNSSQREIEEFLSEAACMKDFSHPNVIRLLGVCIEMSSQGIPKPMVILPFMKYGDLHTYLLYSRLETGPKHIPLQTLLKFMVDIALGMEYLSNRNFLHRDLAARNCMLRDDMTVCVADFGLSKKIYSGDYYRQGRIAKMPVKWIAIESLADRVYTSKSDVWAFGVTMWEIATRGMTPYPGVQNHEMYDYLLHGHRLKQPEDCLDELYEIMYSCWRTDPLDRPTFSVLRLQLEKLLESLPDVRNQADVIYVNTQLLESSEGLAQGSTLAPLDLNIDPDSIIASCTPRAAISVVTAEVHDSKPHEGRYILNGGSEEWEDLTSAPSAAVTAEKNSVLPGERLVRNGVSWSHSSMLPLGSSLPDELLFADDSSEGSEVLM", "test": "TR-FRET kinase assay, MER", "settings": "Kinase Concentration 0.25 nM; 50 nM ULight-labeled substrate, 200 micromolar ATP, 2 hours", "method": "as §1, §2"}, "LYNb": {"molecular_target": "LYNb (Homo sapiens, UniProt P07948)", "sequence (P07948 1-491 isoform P07948-2, species assumed)": "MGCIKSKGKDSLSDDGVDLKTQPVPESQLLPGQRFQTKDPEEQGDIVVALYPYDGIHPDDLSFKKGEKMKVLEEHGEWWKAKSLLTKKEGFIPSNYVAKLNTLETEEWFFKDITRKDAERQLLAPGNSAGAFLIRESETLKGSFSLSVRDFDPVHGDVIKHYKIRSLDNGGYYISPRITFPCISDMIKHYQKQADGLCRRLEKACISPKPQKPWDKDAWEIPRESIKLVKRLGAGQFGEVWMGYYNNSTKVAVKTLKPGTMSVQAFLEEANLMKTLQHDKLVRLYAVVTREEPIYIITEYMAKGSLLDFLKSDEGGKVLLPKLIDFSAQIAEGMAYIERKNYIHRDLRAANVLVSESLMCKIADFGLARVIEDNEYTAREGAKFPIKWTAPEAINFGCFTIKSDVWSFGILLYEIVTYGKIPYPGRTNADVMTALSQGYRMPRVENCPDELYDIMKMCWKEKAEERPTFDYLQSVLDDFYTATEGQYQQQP", "test": "TR-FRET kinase assay, LYNb", "settings": "Kinase Concentration 1 nM; 50 nM ULight-labeled substrate, 200 micromolar ATP, 2 hours", "method": "as §1, §2"}, "EphA4": {"molecular_target": "EphA4 (Homo sapiens, UniProt P54764)", "sequence (P54764 20-986, species assumed)": "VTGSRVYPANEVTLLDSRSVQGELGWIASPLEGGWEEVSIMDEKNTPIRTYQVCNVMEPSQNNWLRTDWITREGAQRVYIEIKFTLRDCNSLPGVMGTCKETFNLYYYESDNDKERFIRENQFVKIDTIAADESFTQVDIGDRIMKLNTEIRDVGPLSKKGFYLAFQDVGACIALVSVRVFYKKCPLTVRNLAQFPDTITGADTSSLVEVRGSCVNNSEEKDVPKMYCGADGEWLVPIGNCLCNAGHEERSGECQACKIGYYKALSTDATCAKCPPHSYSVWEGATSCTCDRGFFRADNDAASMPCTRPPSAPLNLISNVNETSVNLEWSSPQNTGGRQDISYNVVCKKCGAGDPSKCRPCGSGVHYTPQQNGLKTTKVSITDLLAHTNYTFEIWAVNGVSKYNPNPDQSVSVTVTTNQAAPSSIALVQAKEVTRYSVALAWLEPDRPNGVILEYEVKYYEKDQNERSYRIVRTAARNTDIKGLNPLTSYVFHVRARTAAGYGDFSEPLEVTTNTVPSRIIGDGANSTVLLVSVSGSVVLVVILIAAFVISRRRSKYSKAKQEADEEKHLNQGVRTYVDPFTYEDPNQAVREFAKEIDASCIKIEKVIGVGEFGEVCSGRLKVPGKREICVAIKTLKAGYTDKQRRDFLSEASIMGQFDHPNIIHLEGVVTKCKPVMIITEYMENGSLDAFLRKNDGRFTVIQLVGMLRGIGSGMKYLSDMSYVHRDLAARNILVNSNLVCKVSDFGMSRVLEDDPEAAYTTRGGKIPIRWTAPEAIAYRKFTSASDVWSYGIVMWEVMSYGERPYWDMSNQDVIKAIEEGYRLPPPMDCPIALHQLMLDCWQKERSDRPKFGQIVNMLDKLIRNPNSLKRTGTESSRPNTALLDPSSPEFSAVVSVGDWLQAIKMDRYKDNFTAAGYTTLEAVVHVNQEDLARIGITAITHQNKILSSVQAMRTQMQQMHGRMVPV", "test": "TR-FRET kinase assay, EphA4", "settings": "Kinase Concentration 0.5 nM; 50 nM ULight-labeled substrate, 200 micromolar ATP, 2 hours", "method": "as §1, §2"}, "FGFR4": {"molecular_target": "FGFR4 (Homo sapiens, UniProt P22455)", "test": "TR-FRET kinase assay, FGFR4", "settings": "Kinase Concentration 3 nM; 50 nM ULight-labeled substrate, 200 micromolar ATP, 2 hours", "method": "as §1, §2"}}}
{"sequence": "C AYE AYE AYE K EYA EYA EYA K AYA EYE R (CAYEAYEAYEKEYAEYAEYAKAYAEYER; tyrosine kinase substrate peptide) [BRB1]", "values": [{"measurement": "Signal to Noise ratio with BRB1 Peptide", "setting": "TYRO3", "value": 6.1}, {"measurement": "Signal to Noise ratio with BRB1 Peptide", "setting": "MER", "value": 12.9}, {"measurement": "Signal to Noise ratio with BRB1 Peptide", "setting": "LYNb", "value": 33.1}, {"measurement": "Signal to Noise ratio with BRB1 Peptide", "setting": "EphA4", "value": 31.5}, {"measurement": "Signal to Noise ratio with BRB1 Peptide", "setting": "FGFR4", "value": 17.7}]}
